Measurements reported in patent publication US20090042849.

Key:
[1] = biological target: T1, cytosolic phospholipase A2, P50393
T1 chain: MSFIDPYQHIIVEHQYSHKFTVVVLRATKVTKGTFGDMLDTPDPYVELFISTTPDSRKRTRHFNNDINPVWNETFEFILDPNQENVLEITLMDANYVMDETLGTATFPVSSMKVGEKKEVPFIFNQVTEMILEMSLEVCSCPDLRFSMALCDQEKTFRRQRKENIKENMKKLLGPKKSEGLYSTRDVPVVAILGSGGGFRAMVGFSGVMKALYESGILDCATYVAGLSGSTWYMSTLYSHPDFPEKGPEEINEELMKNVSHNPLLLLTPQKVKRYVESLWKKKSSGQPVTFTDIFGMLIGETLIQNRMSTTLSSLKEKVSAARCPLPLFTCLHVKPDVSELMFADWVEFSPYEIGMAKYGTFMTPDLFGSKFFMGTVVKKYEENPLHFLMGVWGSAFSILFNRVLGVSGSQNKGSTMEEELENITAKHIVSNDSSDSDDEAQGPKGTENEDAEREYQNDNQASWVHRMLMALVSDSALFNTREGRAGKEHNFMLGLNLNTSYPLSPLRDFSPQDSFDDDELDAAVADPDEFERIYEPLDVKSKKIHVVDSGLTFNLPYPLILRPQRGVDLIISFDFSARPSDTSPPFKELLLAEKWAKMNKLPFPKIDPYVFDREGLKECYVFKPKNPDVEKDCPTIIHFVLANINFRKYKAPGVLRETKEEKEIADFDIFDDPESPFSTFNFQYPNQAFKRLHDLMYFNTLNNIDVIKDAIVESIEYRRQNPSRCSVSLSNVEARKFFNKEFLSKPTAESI

cycloxygenase-2, P35355 = biological target: T2, cycloxygenase-2, P35355
T2 chain: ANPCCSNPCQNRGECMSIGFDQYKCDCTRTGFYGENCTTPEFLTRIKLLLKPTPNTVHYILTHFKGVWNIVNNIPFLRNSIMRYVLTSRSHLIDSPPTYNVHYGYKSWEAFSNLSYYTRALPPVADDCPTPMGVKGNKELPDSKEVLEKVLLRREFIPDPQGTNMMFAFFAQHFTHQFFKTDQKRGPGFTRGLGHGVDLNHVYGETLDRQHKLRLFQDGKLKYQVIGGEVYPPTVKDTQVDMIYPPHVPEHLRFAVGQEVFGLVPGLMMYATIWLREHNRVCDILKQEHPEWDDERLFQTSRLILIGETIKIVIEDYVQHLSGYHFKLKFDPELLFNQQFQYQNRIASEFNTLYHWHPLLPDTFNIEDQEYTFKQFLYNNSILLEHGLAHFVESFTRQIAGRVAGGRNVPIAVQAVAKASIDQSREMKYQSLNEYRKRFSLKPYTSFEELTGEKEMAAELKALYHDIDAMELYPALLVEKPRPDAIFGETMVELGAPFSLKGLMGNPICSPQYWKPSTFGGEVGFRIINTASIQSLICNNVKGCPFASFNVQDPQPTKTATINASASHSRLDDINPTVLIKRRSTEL

B1: 5-lipoxygenase (protein)
chain: MPSYTVTVATGSQWFAGTDDYIYLSLIGSAGCSEKHLLDKAFYNDFERGGRDSYDVTVDEELGEIYLVKIEKRKYRLHDDWYLKYITLKTPHDYIEFPCYRWITGEGEIVLRDGCAKLARDDQIHILKQHRRKELETRQKQYRWMEWNPGFPLSIDAKCHKDLPRDIQFDSEKGVDFVLNYSKAMENLFINRFMHMFQSSWHDFADFEKIFVKISNTISERVKNHWQEDLMFGYQFLNGCNPVLIKRCTELPKKLPVTTEMVECSLERQLSLEQEVQEGNIFIVDYELLDGIDANKTDPCTHQFLAAPICLLYKNLANKIVPIAIQLNQTPGEKNPIFLPTDSKYDWLLAKIWVRSSDFHIHQTITHLLRTHLVSEVFGIAMYRQLPAVHPLFKLLVAHVRFTIAINTKAREQLNCEYGLFDKANATGGGGHVQMVQRAVQDLTYSSLCFPEAIKARGMDNTEDIPYYFYRDDGLLVWEAIQSFTTEVVSIYYEDDQVVEEDQELQDFVKDVYVYGMRGRKASGFPKSIKSREKLSEYLTVVIFTASAQHAAVNFGQYDWCSWIPNAPPTMRAPPPTAKGVVTIEQIVDTLPDRGRSCWHLGAVWALSQFQENELFLGMYPEEHFIEKPVKEAMIRFRKNLEAIVSVIAERNKNKKLPYYYLSPDRIPNSVAI
- LTB4 production [1]: 5-lipoxygenase co-immunoprecipitated with cPLA2 (FIG. 10) and metabolized arachidonic acid, generated by cPLA2, into LTB4
- 15ELXA production (cycloxygenase-2, P35355): it interacted with COX2 in the cytosolic fraction (FIG. 11) to generate 15ELXA (FIG. 9A)
